According to the Human Domainome abundance scans (Beltran et al. 2025):
± gives the uncertainty stated by the source.

B1: Nuclear receptor subfamily 4 group A member 2, residues 260 to 336; numbered along this chain, P43354 (parent)
chain: EGLCAVCGDNAACQHYGVRTCEGCKGFFKRTVQKNAKYVCLANKNCPVDKRRRNRCQYCRFQKCLAVGMVKEVVRTD

Variants of: B1
Assay: abundance fitness (aPCA) (normalised: wild type 0, dead -1); higher = more abundant; growth selection in yeast, the domain comes from the species named
Settings: Homo sapiens

In order of rising abundance fitness:
1. F27S  -1.12 ± 0.29
2. C46E  -1.09 ± 0.46
3. F27A  -1.06 ± 0.25
4. C46W  -1.03 ± 0.13
5. C46M  -0.993 ± 0.35
6. F27G  -0.99 ± 0.17
7. F27R  -0.975 ± 0.15
8. C56A  -0.941 ± 0.28
9. F27V  -0.934 ± 0.18
10. C56W  -0.908 ± 0.097
11. K63E  -0.898 ± 0.27
12. C46G  -0.897 ± 0.056
13. C46V  -0.851 ± 0.077
14. G68V  -0.836 ± 0.089
15. C40W  -0.761 ± 0.31
16. C46S  -0.754 ± 0.19
17. F61D  -0.745 ± 0.24
18. C56D  -0.707 ± 0.37
19. F61C  -0.701 ± 0.099
20. C56S  -0.667 ± 0.23
21. R60G  -0.648 ± 0.052
22. M69R  -0.64 ± 0.12
23. M69S  -0.627 ± 0.23
24. F27H  -0.624 ± 0.36
25. M69I  -0.618 ± 0.34
26. C46L  -0.609 ± 0.1
27. V32K  -0.532 ± 0.26
28. K63D  -0.52 ± 0.29
29. N43T  -0.505 ± 0.33
30. N35V  -0.487 ± 0.12
31. V18W  -0.484 ± 0.13
32. C4R  -0.47 ± 0.35
33. E72L  -0.468 ± 0.083
34. C21G  -0.46 ± 0.23
35. G68F  -0.436 ± 0.12
36. V48A  -0.409 ± 0.17
37. F61V  -0.401 ± 0.046
38. K63L  -0.354 ± 0.088
39. K29Y  -0.344 ± 0.42
40. E72C  -0.344 ± 0.075
41. G68R  -0.314 ± 0.074
42. R52S  -0.31 ± 0.14
43. C13I  -0.298 ± 0.43
44. V18R  -0.29 ± 0.12
45. G68S  -0.287 ± 0.12
46. M69V  -0.285 ± 0.047
47. E72F  -0.267 ± 0.09
48. K44A  -0.265 ± 0.24
49. M69C  -0.247 ± 0.06
50. R30G  -0.235 ± 0.072
51. F61S  -0.235 ± 0.21
52. N43I  -0.231 ± 0.24
53. E22W  -0.208 ± 0.092
54. E22S  -0.204 ± 0.11
55. N43G  -0.202 ± 0.12
56. M69A  -0.191 ± 0.092
57. F61Q  -0.187 ± 0.27
58. Y16V  -0.185 ± 0.11
59. Y16K  -0.185 ± 0.12
60. K29G  -0.178 ± 0.074
61. Q57F  -0.177 ± 0.13
62. R30I  -0.163 ± 0.23
63. V18Q  -0.161 ± 0.12
64. Q57Y  -0.158 ± 0.19
65. V18L  -0.15 ± 0.098
66. K29N  -0.138 ± 0.33
67. N35T  -0.137 ± 0.13
68. R55A  -0.134 ± 0.081
69. Y16T  -0.131 ± 0.14
70. N35H  -0.13 ± 0.14
71. K44H  -0.129 ± 0.25
72. Q57V  -0.126 ± 0.054
73. G68N  -0.126 ± 0.41
74. K37H  -0.124 ± 0.18
75. V18S  -0.121 ± 0.082
76. R19Y  -0.12 ± 0.19
77. V74R  -0.118 ± 0.11
78. V18F  -0.111 ± 0.11
79. V18P  -0.11 ± 0.092
80. E22F  -0.102 ± 0.16
81. Y16S  -0.1 ± 0.15
82. K37R  -0.099 ± 0.081
83. K44L  -0.096 ± 0.16
84. A36S  -0.095 ± 0.1
85. A36G  -0.093 ± 0.071
86. A36M  -0.093 ± 0.24
87. V48S  -0.091 ± 0.17
88. N35F  -0.089 ± 0.35
89. Y16L  -0.081 ± 0.12
90. A36P  -0.081 ± 0.3
91. K37G  -0.07 ± 0.073
92. E22K  -0.067 ± 0.12
93. E22L  -0.067 ± 0.062
94. E72G  -0.067 ± 0.036
95. R55D  -0.065 ± 0.13
96. R52C  -0.061 ± 0.071
97. A36W  -0.057 ± 0.12
98. Y16R  -0.051 ± 0.14
99. Q33L  -0.049 ± 0.25
100. V18E  -0.044 ± 0.14
101. L65E  -0.038 ± 0.1
102. Q33K  -0.035 ± 0.23
103. Q57L  -0.034 ± 0.065
104. V48M  -0.032 ± 0.27
105. R30F  -0.032 ± 0.36
106. K44R  -0.03 ± 0.12
107. R19I  -0.03 ± 0.12
108. K44T  -0.028 ± 0.15
109. K63M  -0.025 ± 0.18
110. A36V  -0.023 ± 0.079
111. R55G  -0.023 ± 0.035
112. R52M  -0.021 ± 0.1
113. R30K  -0.016 ± 0.38
114. E72S  -0.012 ± 0.087
115. K37P  -0.008 ± 0.16
116. A36E  -0.001 ± 0.11
117. R52E  0 ± 0.094
118. R52D  0.002 ± 0.12
119. C13T  0.006 ± 0.098
120. K29L  0.008 ± 0.078
121. R19C  0.009 ± 0.092
122. R52W  0.01 ± 0.063
123. N35A  0.011 ± 0.068
124. D49T  0.013 ± 0.23
125. K29A  0.014 ± 0.096
126. R19A  0.015 ± 0.056
127. A36L  0.017 ± 0.097
128. K37Y  0.019 ± 0.21
129. R55V  0.024 ± 0.04
130. R19L  0.026 ± 0.06
131. E22M  0.027 ± 0.2
132. N35K  0.033 ± 0.12
133. D49E  0.033 ± 0.097
134. R19S  0.034 ± 0.063
135. R55L  0.035 ± 0.06
136. V32T  0.036 ± 0.34
137. Y16F  0.037 ± 0.13
138. R19P  0.037 ± 0.098
139. K63T  0.038 ± 0.15
140. R55Y  0.038 ± 0.16
141. E22D  0.049 ± 0.11
142. R19K  0.05 ± 0.083
143. R60M  0.053 ± 0.14
144. F61L  0.057 ± 0.07
145. E22Y  0.06 ± 0.25
146. R19E  0.064 ± 0.073
147. Q57A  0.068 ± 0.097
148. N35E  0.071 ± 0.094
149. C13W  0.082 ± 0.07
150. Q57S  0.083 ± 0.12
151. C13L  0.083 ± 0.083
152. C13S  0.092 ± 0.075
153. V32E  0.101 ± 0.45
154. R60C  0.101 ± 0.066
155. K37M  0.11 ± 0.16
156. C13F  0.116 ± 0.18
157. V18A  0.116 ± 0.12
158. E72P  0.116 ± 0.14
159. C13H  0.136 ± 0.31
160. R19H  0.137 ± 0.11
161. E72K  0.154 ± 0.23
162. R52Y  0.204 ± 0.47
163. T20S  0.204 ± 0.26
164. N43A  0.245 ± 0.12
165. K29M  0.296 ± 0.19
166. C40Y  0.296 ± 0.32
167. Q57M  0.463 ± 0.35
